From patent US20040253222A1 come the findings set out here.

For the assay, the target named is complement receptor type 3 (CR3), heterodimer of CD11b and CD18 (human) (UniProt P11215). Briefly: cell-based or functional assay.

For Bear1 anti-CD11b antibody (Immunotech), the invasion inhibition of endo- and ectocervical cells (gentamicin-resistance assay) is > 93%.

Take “H5A4 anti-CD11b monoclonal antibody (Developmental Studies Hybridoma Bank)”: the invasion inhibition of endo- and ectocervical cells (gentamicin-resistance assay) was > 93%; the invasion inhibition, ectocervical cells (gentamicin-resistance assay) was found to be 100%; the invasion inhibition, endocervical cells (gentamicin-resistance assay) amounted to 99.9%.

As for IB4 anti-CD18 antibody, the invasion inhibition of endo- and ectocervical cells (gentamicin-resistance assay) is > 93%.
